In general, Kd refers to the constant that tells how readily two partners part at equilibrium.

Our source for the Kd values is article PMC12833063.

This test deals with anti-PD-L1×avβ3 dual function antibody (B1451). Nature of the test: SPR; Biacore T200; B1451 captured at about 35 RU on anti-human IgG (Fc) immobilised on a CM5 chip; human αvβ3 injected, 2-fold dilutions 12.5-400 nM, association 120 s; regeneration 10 mM glycine-HCl pH 1.5; 1:1 binding model. A general note: In SPR one partner is held on a chip, and binding of the other changes the refractive index at the surface.

human αvβ3, sequence (P06756 31-1048): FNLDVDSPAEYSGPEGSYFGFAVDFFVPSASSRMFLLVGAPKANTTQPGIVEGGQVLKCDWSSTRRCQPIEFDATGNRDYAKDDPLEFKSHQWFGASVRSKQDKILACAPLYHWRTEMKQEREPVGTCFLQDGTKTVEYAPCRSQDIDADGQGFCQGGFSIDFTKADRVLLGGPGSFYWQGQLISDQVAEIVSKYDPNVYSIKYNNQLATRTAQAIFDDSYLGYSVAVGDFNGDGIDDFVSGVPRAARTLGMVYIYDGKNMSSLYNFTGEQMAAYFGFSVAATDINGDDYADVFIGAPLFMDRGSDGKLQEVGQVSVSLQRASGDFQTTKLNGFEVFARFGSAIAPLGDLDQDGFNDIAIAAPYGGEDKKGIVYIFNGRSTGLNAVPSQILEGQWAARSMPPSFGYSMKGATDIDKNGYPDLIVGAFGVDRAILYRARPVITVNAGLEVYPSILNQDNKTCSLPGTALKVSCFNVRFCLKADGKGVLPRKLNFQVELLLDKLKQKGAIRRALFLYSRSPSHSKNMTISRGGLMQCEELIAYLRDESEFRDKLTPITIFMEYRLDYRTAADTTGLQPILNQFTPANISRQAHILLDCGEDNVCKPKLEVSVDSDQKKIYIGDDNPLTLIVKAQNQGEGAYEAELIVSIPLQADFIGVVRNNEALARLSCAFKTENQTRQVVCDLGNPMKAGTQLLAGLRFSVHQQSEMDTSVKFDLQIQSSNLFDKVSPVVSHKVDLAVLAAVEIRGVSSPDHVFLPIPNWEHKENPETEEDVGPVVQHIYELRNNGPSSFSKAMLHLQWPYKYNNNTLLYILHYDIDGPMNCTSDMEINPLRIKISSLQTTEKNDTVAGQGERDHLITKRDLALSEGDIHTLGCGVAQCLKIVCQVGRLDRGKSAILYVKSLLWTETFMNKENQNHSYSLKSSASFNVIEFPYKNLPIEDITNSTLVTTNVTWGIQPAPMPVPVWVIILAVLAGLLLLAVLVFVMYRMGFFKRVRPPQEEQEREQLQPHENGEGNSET
human αvβ3, sequence (P05106 27-718): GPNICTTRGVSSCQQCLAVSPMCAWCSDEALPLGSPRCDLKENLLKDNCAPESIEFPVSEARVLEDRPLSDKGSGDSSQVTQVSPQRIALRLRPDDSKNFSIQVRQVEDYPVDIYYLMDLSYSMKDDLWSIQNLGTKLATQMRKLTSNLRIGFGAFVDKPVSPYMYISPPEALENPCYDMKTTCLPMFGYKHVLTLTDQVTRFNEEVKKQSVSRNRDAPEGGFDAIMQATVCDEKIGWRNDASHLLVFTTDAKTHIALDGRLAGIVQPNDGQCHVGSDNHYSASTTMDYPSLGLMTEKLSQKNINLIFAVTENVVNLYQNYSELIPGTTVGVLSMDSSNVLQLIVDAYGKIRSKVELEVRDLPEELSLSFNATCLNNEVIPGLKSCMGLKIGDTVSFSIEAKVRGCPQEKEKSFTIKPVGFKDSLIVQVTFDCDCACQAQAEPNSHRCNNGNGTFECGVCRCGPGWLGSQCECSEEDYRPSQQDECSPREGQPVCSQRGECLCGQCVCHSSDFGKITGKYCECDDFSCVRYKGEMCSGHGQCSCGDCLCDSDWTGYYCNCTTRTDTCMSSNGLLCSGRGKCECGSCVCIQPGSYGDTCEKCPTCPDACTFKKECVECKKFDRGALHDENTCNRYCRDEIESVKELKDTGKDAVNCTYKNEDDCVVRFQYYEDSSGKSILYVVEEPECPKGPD

On to “human αvβ3 (from UniProt P06756 31-1048; P05106 27-718) (complex)”, for which the dissociation constant Kd worked out at 15.5 µM.
